{
  "source": "paper PMC9358478",
  "about": "(The Journal of Biological Chemistry, 2022)",
  "target": "T1, full-length recombinant human TG2 (human, UniProt P21980 1-687)",
  "T1 sequence": "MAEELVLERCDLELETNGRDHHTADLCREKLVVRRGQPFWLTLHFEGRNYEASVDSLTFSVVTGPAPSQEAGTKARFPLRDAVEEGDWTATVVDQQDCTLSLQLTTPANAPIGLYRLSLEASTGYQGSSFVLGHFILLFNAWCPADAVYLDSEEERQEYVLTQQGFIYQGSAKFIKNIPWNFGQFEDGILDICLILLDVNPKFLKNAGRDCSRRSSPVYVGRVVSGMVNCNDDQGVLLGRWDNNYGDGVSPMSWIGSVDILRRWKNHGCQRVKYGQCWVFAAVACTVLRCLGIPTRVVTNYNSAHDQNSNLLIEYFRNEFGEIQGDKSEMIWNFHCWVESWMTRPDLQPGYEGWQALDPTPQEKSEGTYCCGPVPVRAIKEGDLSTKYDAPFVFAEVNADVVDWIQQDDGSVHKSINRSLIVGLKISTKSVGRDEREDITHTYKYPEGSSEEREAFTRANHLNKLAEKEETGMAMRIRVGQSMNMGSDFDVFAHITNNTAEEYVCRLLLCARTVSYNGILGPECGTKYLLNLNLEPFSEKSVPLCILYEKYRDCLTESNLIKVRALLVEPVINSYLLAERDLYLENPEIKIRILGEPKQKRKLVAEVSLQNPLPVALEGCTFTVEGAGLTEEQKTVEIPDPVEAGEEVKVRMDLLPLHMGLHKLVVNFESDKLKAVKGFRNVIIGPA",
  "assay": "co-IP",
  "data": [
    {"binder": "full-length recombinant human ILK (natural protein) MDDIFTQCREGNAVAVRLWLDNTENDLNQGDDHGFSPLHWACREGRSAVVEMLIMRGARINVMNRGDDTPLHLAASHGHRDIVQKLLQYKADINAVNEHGNVPLHYACFWGQDQVAEDLVANGALVSICNKYGEMPVDKAKAPLRELLRERAEKMGQNLNRIPYKDTFWKGTTRTRPRNGTLNKHSGIDFKQLNFLTKLNENHSGELWKGRWQGNDIVVKVLKVRDWSTRKSRDFNEECPRLRIFSHPNVLPVLGACQSPPAPHPTLITHWMPYGSLYNVLHEGTNFVVDQSQAVKFALDMARGMAFLHTLEPLIPRHALNSRSVMIDEDMTARISMADVKFSFQCPGRMYAPAWVAPEALQKKPEDTNRRSADMWSFAVLLWELVTREVPFADLSNMEIGMKVALEGLRPTIPPGISPHVCKLMKICMNEDPAKRPKFDMIVPILEKMQDK", "values": [
      {"measurement": "binding result", "result": "binds"}
    ]}
  ]
}
